Assay results: article PMC9898865

Target: SARS-CoV-2 S protein (residues 1-1212 with stabilizing mutations R684G, R685S, R678G, K998P and V999 (SARS-CoV-2) (UniProt P0DTC2))
Experiment: ELISA; ELISA-like solid-phase binding: ligands coated on 96-well plates in TBS, 6 h RT (S protein 20 µg/ml, vitronectin 5 µg/ml, fibrinogen 20 µg/ml, fibronectin 10 µg/ml); velcro-tagged integrins at 10 µg/ml in 20 mM Hepes, 150 mM NaCl, 1 mM MnCl2, pH 7.2, 2 h RT; detected by biotinylated anti-velcro antibody, streptavidin-HRP, ABTS, 405 nm

With “velcro-tagged integrin α5β1 (from UniProt P08648 42-995; P05556 21-728) (receptor)” the fold weaker than the binding to the physiological ligand (fibronectin) was < 10 fold.
